Assay [1] has as its target GmALMT12/QUAC1 (aluminum-activated malate transporter 12 / quick anion channel 1 from Glycine max) (Glycine max (soybean)). Kind of assay: cryo-EM structure.
For assay [2], the target named is GmALMT12/QUAC1 cytoplasmic helical domain (CHD, residues 221 to 537), wild type (Glycine max (soybean)). The experiment in a line: SEC. On the technique in general: SEC sorts molecules by how far they enter the pores of the column.

The stoichiometry N is a count of units in the complex or per binding partner. Substance “GmALMT12/QUAC1 (aluminum-activated malate transporter 12 / quick anion channel 1 from Glycine max) (natural protein)” came in with a stoichiometry N in assay [1] of 2.
For “GmALMT12/QUAC1 cytoplasmic helical domain (CHD, residues 221 to 537), wild type (domain or fragment)”, in assay [2], the stoichiometry N was determined as 2.

The record behind these values is publication PMC8890709.
